Data as given in the supplement of paper PMC10724198.
± gives the standard deviation of the averaged measurements.

Each sequence was assayed on Saccharomyces cerevisiae (assay: protein stability index of tFT-peptide fusion (C-terminal peptide) (PSI (0-1 scale)); higher = more stable (slower turnover)). Conditions: genetic background: wild type; temperature: 30 C.
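Further: PSI is a weighted mean of sequencing reads over stability bins, variants kept only with over 10 reads, mCherry proximal and sfGFP distal, peptide attached via GGGS linker.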

Sequence	protein stability index
LRPCVSHLHLQN	0.677 ± 0.18
LRPGRSKHSSQA	0.721 ± 0.044
LRQVGTASSLRR	0.717 ± 0.045
LRREQIKEAKHR	0.66 ± 0.017
LRRNHREPGYSK	0.684 ± 0.024
LRRPSPPAPPPP	0.718 ± 0.11
LRSAPTLFTRPY	0.677 ± 0.0091
LRSAYGHCLQKI	0.715 ± 0.14
LRSCLARGLFFG	0.7426 ± 0.0066
LRSLRFALFPPA	0.642 ± 0.083
LRVQASALHVLQ	0.667 ± 0.021
LRVQFFFLAGCT	0.584 ± 0.006
LRYGSDQMERFI	0.717 ± 0.1
LSAMVSYTRAPF	0.67811 ± 0.00065
LSARAKRTVTFL	0.593 ± 0.043
LSASHVMSLTNL	0.698 ± 0.028
LSCQWNSDSLGV	0.644 ± 0.1
LSCRGVTIRYCW	0.683 ± 0.012
LSCSPVFFPLQP	0.69 ± 0.0096
LSDLDSMVMIVP	0.869 ± 0.16
LSDSLERVGGAF	0.701 ± 0.048
LSFSFSPTSPPP	0.739 ± 0.072
LSFWGLLSFWTP	0.594 ± 0.02

Sequence	protein stability index
LSGWVLVGNWGN	0.647 ± 0.036
LSILSIHAHRAN	0.665 ± 0.099
LSLAPPPLLHHL	0.664 ± 0.02
LSLLKPLALCES	0.559 ± 0.032
LSLLPFLRPPPI	0.774 ± 0.043
LSLPPHSPPLHR	0.702 ± 0.04
LSLPQPHPPLKS	0.679 ± 0.029
LSMPRVHTRHRP	0.708 ± 0.014
LSPGLPRLLVKM	0.669 ± 0.033
LSPLGLGPLLPP	0.68 ± 0.048
LSPLRPPAPSVF	0.646 ± 0.038
LSPPFLLTSPLT	0.703 ± 0.046
LSPPLAPPPALP	0.701 ± 0.08
LSPPPPPPVFSP	0.727 ± 0.026
LSPPVLLAPPQH	0.59 ± 0.0098
LSRPPSRPLPLP	0.677 ± 0.04
LSRTAFRPSLTL	0.746 ± 0.024
LSSADSVVSSVV	0.696 ± 0.0093
LSTYVLRTGSFP	0.677 ± 0.1
LSVAYSDIIVRC	0.554 ± 0.0065
LSVSRLGFLLRG	0.684 ± 0.037
LSVTGGRFSVSG	0.7174 ± 0.0063
LSYSSLGLRFSY	0.579 ± 0.02

Sequence	protein stability index
LSYWPDARRPVL	0.643 ± 0.046
LTFPILPVSTRV	0.603 ± 0.025
LTGSGSGQGSRN	0.688 ± 0.0097
LTHSTLCYASDL	0.677 ± 0.018
LTKHQITKKAER	0.73 ± 0.078
LTLPSDSSALPA	0.748 ± 0.03
LTPCPHATPEPP	0.615 ± 0.026
LTPFQGLHLPIP	0.745 ± 0.037
LTPMDVPDPLPH	0.757 ± 0.14
LTVGPCQPAGEA	0.776 ± 0.065
LTVLCWVLCYLL	0.527 ± 0.026
LTYFSDRFVTRV	0.6579 ± 0.0051
LVAHLSTAPPPP	0.675 ± 0.0061
LVCCRRILLNTT	0.634 ± 0.089
LVCPLGIEGFSM	0.723 ± 0.034
LVCSSVALLSVL	0.593 ± 0.018
LVDARVRLTFVI	0.536 ± 0.014
LVGAGREGRFVA	0.732 ± 0.083
LVGGTVYRKPSP	0.599 ± 0.025
LVGICERRHVHC	0.638 ± 0.11
LVKRINKVNNRR	0.632 ± 0.1
LVKVGCVGLIKC	0.545 ± 0.0066
LVLPCLLLFPPS	0.711 ± 0.047

Sequence	protein stability index
LVNLESRAGAIR	0.713 ± 0.043
LVNSEKFCLSIC	0.535 ± 0.035
LVPDGFMLALKE	0.686 ± 0.038
LVQGPLSQDQPI	0.656 ± 0.029
LVRFVLNKYRGR	0.718 ± 0.012
LVRVFGQSPAPL	0.696 ± 0.031
LVSFSDTPMATA	0.786 ± 0.1
LVVSITGRFRRF	0.69 ± 0.03
LVVWFGYFGCLL	0.56 ± 0.063
LVWGGVWGAPCR	0.774 ± 0.034
LVWTGGLVGWLR	0.719 ± 0.2
LVYPSPPLQPPP	0.649 ± 0.013
LWAYRFAAGEVH	0.589 ± 0.08
LWGGGVGGVRGV	0.641 ± 0.027
LWGGPLLLPVCL	0.577 ± 0.013
LWGRAVYETFQM	0.67 ± 0.063
LWGSGRNWLLWR	0.7 ± 0.017
LWGVGGADARLQ	0.775 ± 0.021
LWGWAGLRCGGF	0.685 ± 0.032
LWLCLCCSPFFV	0.658 ± 0.1
LWTASISVAEVR	0.633 ± 0.012
LWVGVVGGVRGV	0.598 ± 0.1
LWVREVVVVGTV	0.519 ± 0.013

Sequence	protein stability index
LWVSGARTTGYF	0.756 ± 0.048
LYHPRLAPLPRT	0.627 ± 0.042
LYIPQKRGLSLH	0.62 ± 0.021
LYITLLEFKEGR	0.643 ± 0.025
LYKKRSCCLSPL	0.714 ± 0.053
LYMSRYLQLNFG	0.653 ± 0.005
LYNFLFLLPYSL	0.647 ± 0.13
LYPDTDSLTPLP	0.725 ± 0.05
LYPPVYRPVLSL	0.6626 ± 0.0029
LYQRCVCSFREK	0.639 ± 0.016
LYSGADPLPWGR	0.716 ± 0.01
LYSSMFCGTFLL	0.605 ± 0.048
LYSSPSLQSPNP	0.613 ± 0.021
LYVARVGQCVRD	0.686 ± 0.029
MAVDSVIISAVF	0.592 ± 0.096
MAVVSDDRDINC	0.681 ± 0.056
MCLSYLSIFLSL	0.548 ± 0.065
MCLTPLWYPSSA	0.709 ± 0.03
MDGAVRRCLVRG	0.666 ± 0.062
MEAERRKEGENS	0.673 ± 0.072
MERAGTADGGGA	0.662 ± 0.016
MESGGVGRVVWR	0.655 ± 0.079
MGGCGARAVVVG	0.6196 ± 0.0032

Sequence	protein stability index
MGRQSCCHKTSG	0.643 ± 0.042
MGSGRGVITTKG	0.704 ± 0.0077
MGVYAVVGTHGV	0.687 ± 0.079
MIFCSPPPLFFP	0.7 ± 0.0013
MIIPTVLCRVDL	0.661 ± 0.022
MKASRREDLCEP	0.62 ± 0.065
MLLSKRHFESDV	0.692 ± 0.018
MLSPQIERGAGR	0.681 ± 0.018
MNERDKGKIKKQ	0.6974 ± 0.0069
MNLVEIIRGVRL	0.7063 ± 0.0051
MNVASCRGREYV	0.686 ± 0.032
MPFYPSLLTSLL	0.678 ± 0.014
MPLPRQTSAPRP	0.665 ± 0.019
MPSRTYPSPPLG	0.693 ± 0.03
MSHISPFPIFPC	0.686 ± 0.0074
MSKGKKKGVKRK	0.703 ± 0.013
MSLSLLSLFSSL	0.606 ± 0.027
MTYKSKNRATEE	0.648 ± 0.025
NAVCCGKWRGGS	0.714 ± 0.11
NCGGQGKEDGCK	0.621 ± 0.013
NEGRRNSRRHGG	0.683 ± 0.028
NEHTTLKITKNK	0.6818 ± 0.003
NEIENYKDIIEK	0.684 ± 0.011

Sequence	protein stability index
NESGWHNLLMSV	0.708 ± 0.0097
NESLKHDCVKDT	0.735 ± 0.13
NETVIATLGKGA	0.657 ± 0.037
NEYFYINVRNRV	0.6743 ± 0.0017
NFAFPWTSTHAF	0.699 ± 0.017
NFLVNGRASLKV	0.583 ± 0.016
NGGRCRIARVLE	0.679 ± 0.023
NGGRSATGSVVV	0.701 ± 0.066
NGLPGNLYAGKT	0.6558 ± 0.0062
NGPAPTFSPAVR	0.685 ± 0.032
NHETRNCEGINS	0.657 ± 0.026
NHRETNRNRGKL	0.75295 ± 0.00072
NHTKAGTEKNKN	0.618 ± 0.067
NIIRGVIAGNPA	0.747 ± 0.026
NILTIYRTMKSR	0.6855 ± 0.0056
NKFSAFSPETWS	0.7385 ± 0.00092
NKIDNNKKIHRV	0.699 ± 0.053
NKKEYHDRKKKS	0.619 ± 0.045
NKKKKKRNKQKN	0.762 ± 0.011
NKQKKDEKNKTE	0.73 ± 0.17
NKREYYWINLEC	0.562 ± 0.014
NKRKIKKKKKRG	0.651 ± 0.088
